Read-outs that look alike come from different tables or passages of the source.
Legend:
mSA = details: read-out: biotin/mSA affinity, fluorescence polarization spectroscopy, cited from earlier work
[1] = target: T1, mSA (monomeric streptavidin construct), wild type; assay: SPR
T1 construct: also called mSAWT
T1 chain: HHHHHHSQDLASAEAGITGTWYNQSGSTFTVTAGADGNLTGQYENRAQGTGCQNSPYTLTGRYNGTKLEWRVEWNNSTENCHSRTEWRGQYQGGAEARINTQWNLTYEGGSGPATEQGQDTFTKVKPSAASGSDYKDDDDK

[2] = target: T1, mSA (monomeric streptavidin construct), …; assay: SPR, conjugate injected at 1, 2.5, 5, 10, 20 nM; fit curve; replicate 2. The panel title prints 'against immobilized mSAS27A'; target taken as mSAWT after the legend of FIG. 6B (other two replicates against mSAWT are in FIG. 11) and the matching data points of FIG. 6C
[3] = target: T1, mSA (monomeric streptavidin construct), …; assay: SPR, conjugate injected at 1, 2.5, 5, 10, 20 nM; fit curve; replicate 3. The panel title prints 'against immobilized mSAS27A'; target taken as mSAWT after the legend of FIG. 6B and the matching data points of FIG. 6C
[4] = target: T1, mSA (monomeric streptavidin construct), …; assay: SPR, conjugate injected at 1, 2.5, 5, 10, 20 nM; fit curve; replicate 2. The panel title prints 'against immobilized mSAS27A'; target taken as mSAWT after the legend of FIG. 6B and the matching data points of FIG. 6C
[5] = target: T1, mSA (monomeric streptavidin construct), …; assay: SPR, conjugate injected at 1, 2.5, 5, 10, 20 nM over immobilized mSAWT; fit curve; one of three replicates
[6] = target: T1, mSA (monomeric streptavidin construct), …; assay: SPR, single-cycle injections of 2.5, 5, 10, 20 and 50 nM conjugate; target mSAWT by the text, not printed on the sheet; fit curve
[7] = target: T1, mSA (monomeric streptavidin construct), …; assay: SPR, immobilized mSA
[8] = target: T2, mSAS27A (mSA with single mutation S27A); assay: SPR
T2 chain: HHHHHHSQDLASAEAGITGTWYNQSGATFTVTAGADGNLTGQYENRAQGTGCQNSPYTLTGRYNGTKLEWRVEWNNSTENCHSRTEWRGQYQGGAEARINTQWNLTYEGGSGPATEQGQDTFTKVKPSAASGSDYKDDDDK

[9] = target: T2, mSAS27A (mSA with single mutation S27A); assay: SPR, conjugate injected at 62.5, 125, 250, 500 nM and 1 uM over immobilized mSAS27A; biological replicate 2; fit curve
[10] = target: T1, mSA (monomeric streptavidin construct), …; assay: SPR, conjugate injected at 1, 2.5, 5, 10, 20 nM over immobilized mSAWT; fit curve; replicate 3
[11] = target: T2, mSAS27A (mSA with single mutation S27A); assay: SPR; reference mSAS27A/biotin
[12] = target: T1, mSA (monomeric streptavidin construct), …; assay: SPR, 25 °C; reference mSA on immobilized biotin
[13] = target: T1, mSA (monomeric streptavidin construct), …; assay: SPR, conjugate injected at 1, 2.5, 5, 10, 20 nM over immobilized mSAWT; fit curve; one of three replicates
[14] = target: T2, mSAS27A (mSA with single mutation S27A); assay: SPR, conjugate injected at 62.5, 125, 250, 500 nM and 1 uM over immobilized mSAS27A; biological replicate 3; fit curve
[15] = target: T1, mSA (monomeric streptavidin construct), …; assay: SPR, conjugate injected at 1, 2.5, 5, 10, 20 nM over immobilized mSAWT; fit curve; replicate 2
[16] = target: T1, mSA (monomeric streptavidin construct), …; assay: SPR, 25 °C, immobilized mSA
[17] = target: T2, mSAS27A (mSA with single mutation S27A); assay: SPR, conjugate injected at 62.5, 125, 250, 500 nM and 1 µM over immobilized mSAS27A; fit curve; one of three replicates
[18] = target: T2, mSAS27A (mSA with single mutation S27A); assay: SPR, conjugate injected at 12.5, 25, 50, 100, 200 nM over immobilized mSAS27A; fit curve; one of three replicates
[19] = target: T2, mSAS27A (mSA with single mutation S27A); assay: SPR, conjugate injected at 12.5, 25, 50, 100 and 200 nM over immobilized mSAS27A; biological replicate 3; fit curve
[20] = target: T1, mSA (monomeric streptavidin construct), …; assay: SPR, conjugate injected at 0.5, 1, 2.5, 5, 10 nM over immobilized mSAWT; fit curve; replicate 3
[21] = target: T2, mSAS27A (mSA with single mutation S27A); assay: SPR, conjugate injected at 12.5, 25, 50, 100 and 200 nM over immobilized mSAS27A; biological replicate 2; fit curve
[22] = target: T1, mSA (monomeric streptavidin construct), …; assay: SPR, conjugate injected at 0.5, 1, 2.5, 5, 10 nM over immobilized mSAWT; fit curve; replicate 2
[23] = target: T1, mSA (monomeric streptavidin construct), …; assay: SPR, conjugate injected at 0.5, 1, 2.5, 5, 10 nM over immobilized mSAWT; fit curve; one of three replicates
[24] = target: T1, mSA (monomeric streptavidin construct), …; assay: SPR, conjugate injected at 0.5, 1, 2.5, 5, 10 nM over immobilized mSAWT; fit curve; replicate 2
[25] = target: T1, mSA (monomeric streptavidin construct), …; assay: SPR; variant v119
[26] = target: T1, mSA (monomeric streptavidin construct), …; assay: SPR, conjugate injected at 0.5, 1, 2.5, 5, 10 nM over immobilized mSAWT; fit curve; one of three replicates
[27] = target: T1, mSA (monomeric streptavidin construct), …; assay: SPR, conjugate injected at 0.5, 1, 2.5, 5, 10 nM over immobilized mSAWT; fit curve; replicate 3
[28] = target: T1, mSA (monomeric streptavidin construct), …; assay: SPR; variant v149
[29] = target: T1, mSA (monomeric streptavidin construct), …; assay: SPR, conjugate injected at 0.5, 1, 2.5, 5, 10 nM over immobilized mSAWT; fit curve; replicate 2
[30] = target: T1, mSA (monomeric streptavidin construct), …; assay: SPR, conjugate injected at 0.5, 1, 2.5, 5, 10 nM over immobilized mSAWT; fit curve; one of three replicates
[31] = target: T1, mSA (monomeric streptavidin construct), …; assay: SPR, conjugate injected at 0.5, 1, 2.5, 5, 10 nM over immobilized mSAWT; fit curve; replicate 3

O=C(O)CCCC[C@@H]1SC[C@@H]2NC(=O)N[C@@H]21 [biotin]
Kd (mSA; 4° C.): 2.8 ± 0.5 nM | Kd (mSA; 37° C.): 5.5 ± 0.2 nM

B1: 2X89.A-CCAA-biotin57 (VHH)
VHH: QVQLQESGGGSVQAGGSLRLSCAASGYTDSRYAMAWFRQAPGKEREWVARINSGRDCTYYADSVKGRFTFSQDNAKNTVYLQMDSLEPEDTATYYCATDIPLRARDIVAKGGDGFRYWGQGTQVTVSS
notes: also called parent conjugate
Kd [1]: 0.8 nM | kon [2]: 710000 M⁻¹ s⁻¹ | Kd [3]: 0.54 nM | koff [3]: 0.000555 s⁻¹ | kon [3]: 1.03e+06 M⁻¹ s⁻¹ | Kd [4]: 1.01 nM | koff [4]: 0.000718 s⁻¹ | Kd [5]: 0.82 nM | koff [5]: 0.000771 s⁻¹ | kon [5]: 940000 M⁻¹ s⁻¹

B2: 2X89.A-CCAA-biotin57 v5 (VHH)
VHH: QVQLQESGGGLVQAGGSLRLSCAASGYTSSQYAMGWYRQAPGKEREWVATISAGADCTYYADSVKGRFTFSQDNAKNTVYLQMDSLKPEDTAVYYCATDSPLQATLITAKGGKGFQYWGQGTQVTVSS
notes: also called variant v5; final variant v5
Kd [6]: 2.78 nM | koff [6]: 0.00122 s⁻¹ | kon [6]: 440000 M⁻¹ s⁻¹

B3: 4NBX.B nanobody, wild type (unconjugated) (VHH)
VHH: QVQLQESGGGLAQAGGSLRLSCAASGRTFSMDPMAWFRQPPGKEREFVAAGSSTGRTTYYADSVKGRFTISRDNAKNTVYLQMNSLKPEDTAVYYCAAAPYGANWYRDEYAYWGQGTQVTVSS
notes: also called Wildtype 4NBX.B; 4NBX.B WT
binding result [7]: no binding (tested: 100 nM)

B4: 4NBX.B-biotin103 (VHH)
VHH: QVQLQESGGGLAQAGGSLRLSCAASGRTFSMDPMAWFRQPPGKEREFVAAGSSTGRTTYYADSVKGRFTISRDNAKNTVYLQMNSLKPEDTAVYYCAAAPYGCNWYRDEYAYWGQGTQVTVSS
notes: also called 4NBX.B-biotin103 WT
Kd [8]: 245 nM | Kd [9]: 269 nM | koff [9]: 0.296 s⁻¹ | kon [9]: 1.1e+06 M⁻¹ s⁻¹ | Kd [10]: 1.92 nM | koff [10]: 0.00225 s⁻¹ | kon [10]: 1.17e+06 M⁻¹ s⁻¹ | fold affinity improvement over biotin/mSAS27A [11]: 5 fold | fold affinity improvement over biotin/mSA [12]: 4 fold | Kd [13]: 1.86 nM | koff [13]: 0.00221 s⁻¹ | kon [13]: 1.19e+06 M⁻¹ s⁻¹ | Kd [14]: 188 nM | koff [14]: 0.149 s⁻¹ | kon [14]: 790000 M⁻¹ s⁻¹ | Kd [15]: 1.59 nM | koff [15]: 0.00197 s⁻¹ | kon [15]: 1.24e+06 M⁻¹ s⁻¹ | Kd [16]: 1.8 nM | Kd [17]: 279 nM | koff [17]: 0.12 s⁻¹ | kon [17]: 430000 M⁻¹ s⁻¹

B5: 4NBX.B-biotin103 v186_Fr (VHH)
VHH: QVQLQESGGGLVQAGGSLRLSCAASGRTFSRSPMAWYRQPPGKEREFVAAGSSTGTTTYYADSVKGRFTISRDNAKNTVYLQMNSLKPEDTAVYYCAAAPLGCARKFAESAYWGQGTQVTVSS
notes: also called wildtype v186_Fr
Kd [1]: 0.2 nM | fold KD improvement over biotin/mSAWT [1]: > 20 fold | Kd [8]: 54 nM | fold KD improvement (over biotin/mSAS27A) [8]: ~20 fold | Kd [18]: 49.6 nM | koff [18]: 0.0912 s⁻¹ | kon [18]: 1.84e+06 M⁻¹ s⁻¹ | Kd [19]: 55.5 nM | koff [19]: 0.0872 s⁻¹ | kon [19]: 1.57e+06 M⁻¹ s⁻¹ | Kd [20]: 0.21 nM | koff [20]: 0.00089 s⁻¹ | kon [20]: 4.26e+06 M⁻¹ s⁻¹ | Kd [21]: 56.3 nM | koff [21]: 0.0879 s⁻¹ | kon [21]: 1.56e+06 M⁻¹ s⁻¹ | Kd [22]: 0.16 nM | koff [22]: 0.00079 s⁻¹ | kon [22]: 5.04e+06 M⁻¹ s⁻¹ | Kd [23]: 0.23 nM | koff [23]: 0.0011 s⁻¹ | kon [23]: 4.79e+06 M⁻¹ s⁻¹

B6: 4NBX.B-biotin103 v119 (VHH)
VHH: QVQLQESGGGLAQAGGSLRLSCAASGRTFSHAPMAWFRQPPGKEREFVAAGSSTGRTTYYADSVKGRFTISRDNAKNTVYLQMNSLKPEDTAVYYCAAAPYGCSHYRDEYAYWGQGTQVTVSS
fold KD improvement over 4NBX.B-biotin103 WT [1]: ~2 fold | Kd [24]: 0.76 nM | koff [24]: 0.00186 s⁻¹ | kon [24]: 2.45e+06 M⁻¹ s⁻¹ | Kd [25]: 0.9 nM | Kd [26]: 0.78 nM | koff [26]: 0.00177 s⁻¹ | kon [26]: 2.3e+06 M⁻¹ s⁻¹ | Kd [27]: 1.11 nM | koff [27]: 0.00213 s⁻¹ | kon [27]: 1.93e+06 M⁻¹ s⁻¹

B7: 4NBX.B-biotin103 v149 (VHH)
VHH: QVQLQESGGGLAQAGGSLRLSCAASGRTFSRSPMAWFRQPPGKEREFVAAGSSTGRTTYYADSVKGRFTISRDNAKNTVYLQMNSLKPEDTAVYYCAAAPYGCARYRDEYAYWGQGTQVTVSS
fold KD improvement over biotin/mSAWT [1]: > 20 fold | fold faster kon compared to v119 [1]: ~4 fold | koff ratio relative to v119 [1]: ~0.2 fold | Kd [28]: 0.12 nM | Kd [29]: 0.11 nM | koff [29]: 0.00106 s⁻¹ | kon [29]: 9.78e+06 M⁻¹ s⁻¹ | Kd [30]: 0.11 nM | koff [30]: 0.000923 s⁻¹ | kon [30]: 8.7e+06 M⁻¹ s⁻¹ | Kd [31]: 0.14 nM | koff [31]: 0.00081 s⁻¹ | kon [31]: 5.84e+06 M⁻¹ s⁻¹
